Results taken from article PMC10793706, “Genetically engineered IgG1 and nanobody oligomers acquire strong intrinsic CD40 agonism” (Bioengineered, 2024).

Assays:
[1] = target: human CD40 expressed on HT1080-CD40 transfectants (human) (UniProt P25942)
[2] = target: T1, CD40-GpL, the CD40 ectodomain with a C-terminal Gaussia princeps luciferase (GpL) reporter domain (Homo sapiens, UniProt P25942); experiment: plate binding assay with Gaussia luciferase (GpL) fusion proteins; plates coated with 1 µg/ml protein G, loaded with anti-CD40 antibodies (1 µg/ml, in medium); GpL-linked CD40 ectodomain and its deletion mutants added for 1 hour at 37°C; TNFR2(ed)-GpL values subtracted as unspecific binding; details: partners not purified
T1 construct: extracellular domain of CD40 with its cysteine-rich domains (CRDs); also called CD40(ed)-GpL; source: HEK293T, transfected, cell culture supernatant; not shown: Gaussia princeps luciferase (GpL), C-terminal, kept
T1 sequence (P25942 21-193): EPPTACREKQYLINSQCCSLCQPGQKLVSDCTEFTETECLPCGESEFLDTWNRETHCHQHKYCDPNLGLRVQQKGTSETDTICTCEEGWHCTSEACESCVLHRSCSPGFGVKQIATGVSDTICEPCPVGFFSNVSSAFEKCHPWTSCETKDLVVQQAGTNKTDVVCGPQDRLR

Chain of human CD40 expressed on HT1080-CD40 transfectants (human) (P25942 21-277): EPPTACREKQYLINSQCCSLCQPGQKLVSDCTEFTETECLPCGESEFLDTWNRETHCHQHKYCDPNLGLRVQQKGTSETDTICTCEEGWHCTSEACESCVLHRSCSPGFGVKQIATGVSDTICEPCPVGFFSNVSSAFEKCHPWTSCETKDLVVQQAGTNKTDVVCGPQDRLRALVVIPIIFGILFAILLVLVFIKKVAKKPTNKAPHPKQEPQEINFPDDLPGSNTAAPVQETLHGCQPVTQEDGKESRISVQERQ

Molecule	p100 processing and TRAF1 induction (western blot) in U2OS cells; concentration from which the response starts [1] [ng/mL]	binding result [2]
ADC-1013-IgG1 (antibody, V domains shown, constant region of the IgG1 heavy chain; IgG1; also called Mitazalimab; source: HEK293T, transfected, cell culture supernatant) VH: EVQLLESGGGLVQPGGSLRLSCAASGFTFSTYGMHWVRQAPGKGLEWLSYISGGSSYIFYADSVRGRFTISRDNSENALYLQMNSLRAEDTAVYYCARILRGGSGMDLWGQGTLVTVSS VL: QSVLTQPPSASGTPGQRVTISCTGSSSNIGAGYNVYWYQQLPGTAPKLLIYGNINRPSGVPDRFSGSKSGTSASLAISGLRSEDEADYYCAAWDKSISGLVFGGGTKLTVL	–	binds
G28.5-IgG1 (antibody, V domains shown, VH of G28.5; constant region of the IgG1 heavy chain; IgG1; source: HEK293T, transfected, cell culture supernatant) VH: DIQLQQSGPGLVKPSQSLSLTCSVTGYSITTNYNWNWIRQFPGNKLEWMGYIRYDGTSEYTPSLKNRVSITRDTSMNQFFLRLTSVTPEDTATYYCARLDYWGQGTLVTVSS VL: DIVMTQNPLSLPVSLGDEASISCRSSQSLENSNGNTFLNWFFQKPGQSPQLLIYRVSNRFSGVPDRFSGSGSGTDFTLKISRVEAEDLGVYFCLQVTHVPYTFGGGTTLEIK	–	binds

Results, then the molecule that gave them:

p100 processing and TRAF1 induction (western blot) in U2OS cells; concentration from which the response starts [1] [ng/mL]	binding result [2]	Molecule
< 100	–	APX005M-IgG1 (N297A-RGY) (antibody)
–	binds	APX005M-IgG1 (antibody, V domains shown, VH of APX005M; constant region of the IgG1 heavy chain; IgG1; also called Sotigalimab; anti-CD40(APX); source: HEK293T, transfected, cell culture supernatant) VH: QSLEESGGDLVKPGASLTLTCTASGFSFSSTYVCWVRQAPGKGLEWIACIYTGDGTNYSASWAKGRFTISKPSSTTVTLQMTSLTPADTATYFCARPDITYGFAINFWGPGTLVTVSS VL: DIVMTQTPSSASEPVGGTVTIKCQASQSISSRLAWYQQKPGQPPKLLIYRASTLASGVPSRFKGSGSGTEFTLTISDLECADAATYYCQCTGYGISWPIGGGTEVVVK
